# Changes are numbered by the printed parent chain. Names may count otherwise.
# B1: human recombinant HVEM (hHVEM) (receptor, UniProt Q92956 39-202, looked up)
# chain: LPSCKEDEYPVGSECCPKCSPGYRVKEACGELTGTVCEPCPPGTYIAHLNGLSKCLQCQMCDPAMGLRASRNCSRTENAVCGCSPGHFCIVQDGDHCAACRAYATSSPGQRVQKGGTESQDTLCQNCPPGTFSPNGTLEECQHQTKCSWLVTKAGAGTSSSHWV
# notes: Recombinant protein coated at 2.5 ug/ml; also called recombinant hHVEM; hHVEM coated plates
# B2: H4-T57A (antibody, human IgG4 S228P, kappa, V domains shown)
# VH: QVQLVQSGGGLVQPGGSLRLSCAASGFTFSSYAMSWVRQAPGKGLEWVSNIYSNPNRAYYADSVEGRFTISRDNSKNTLYLQMNSLRAEDTAVYYCAKAPGDYTAYFDYWGQGTLVTVSS
# VL: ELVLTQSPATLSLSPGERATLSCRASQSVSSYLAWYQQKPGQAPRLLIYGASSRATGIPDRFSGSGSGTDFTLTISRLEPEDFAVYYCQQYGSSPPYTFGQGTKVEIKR
# notes: H4 variant without the CDR-H2 glycosylation site; also called T57A antibody; T57A variant
# B3: H4 (antibody, human IgG4 S228P, kappa, V domains shown)
# VH: B2 VH with A58T
# VL: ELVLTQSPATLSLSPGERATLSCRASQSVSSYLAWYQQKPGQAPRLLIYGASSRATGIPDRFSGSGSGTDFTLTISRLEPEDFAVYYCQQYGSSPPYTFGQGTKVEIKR
# modifications: N-linked glycosylation site (NXS/T; NRT) in CDR-H2 found to be glycosylated in the final antibody (FIG. 1)
# notes: also called H4-CDR2; H4 antibody
# B4: H4-T57N (antibody, human IgG4 S228P, kappa, V domains shown)
# VH: B2 VH with A58N
# VL: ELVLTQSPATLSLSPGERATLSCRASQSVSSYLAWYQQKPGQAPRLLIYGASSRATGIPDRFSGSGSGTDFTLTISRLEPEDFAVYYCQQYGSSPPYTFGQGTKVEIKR
# notes: H4 variant without the CDR-H2 glycosylation site; also called H4-T57N-CDR2
# B5: H4-T57G (antibody, human IgG4 S228P, kappa, V domains shown)
# VH: B2 VH with A58G
# VL: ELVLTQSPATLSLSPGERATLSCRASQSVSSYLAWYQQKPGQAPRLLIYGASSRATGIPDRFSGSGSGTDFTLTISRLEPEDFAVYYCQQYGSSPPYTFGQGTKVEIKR
# notes: H4 variant without the CDR-H2 glycosylation site; also called H4-T57G-CDR2
# B6: H4-N55D (antibody, human IgG4 S228P, kappa, V domains shown)
# VH: B2 VH with N56D, A58T
# VL: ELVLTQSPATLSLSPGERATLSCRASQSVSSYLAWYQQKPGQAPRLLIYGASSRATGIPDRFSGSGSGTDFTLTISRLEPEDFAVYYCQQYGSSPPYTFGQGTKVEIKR
# notes: H4 variant without the CDR-H2 glycosylation site; also called H4-N55D-CDR2
# B7: H4-N55Q (antibody, human IgG4 S228P, kappa, V domains shown)
# VH: B2 VH with N56Q, A58T
# VL: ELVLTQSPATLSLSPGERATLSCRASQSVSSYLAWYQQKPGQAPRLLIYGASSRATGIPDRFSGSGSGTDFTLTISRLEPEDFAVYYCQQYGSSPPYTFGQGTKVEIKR
# notes: H4 variant without the CDR-H2 glycosylation site; also called H4-N55Q-CDR2
# B8: H4-T57E (antibody, human IgG4 S228P, kappa, V domains shown)
# VH: B2 VH with A58E
# VL: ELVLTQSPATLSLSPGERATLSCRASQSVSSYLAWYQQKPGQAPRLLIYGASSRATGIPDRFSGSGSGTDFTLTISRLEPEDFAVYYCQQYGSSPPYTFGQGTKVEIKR
# notes: H4 variant without the CDR-H2 glycosylation site; also called H4-T57E-CDR2
# B9: H4-N55E (antibody, human IgG4 S228P, kappa, V domains shown)
# VH: B2 VH with N56E, A58T
# VL: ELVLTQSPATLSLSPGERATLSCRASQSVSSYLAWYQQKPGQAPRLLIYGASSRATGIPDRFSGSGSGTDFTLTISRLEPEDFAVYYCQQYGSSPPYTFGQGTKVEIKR
# notes: H4 variant without the CDR-H2 glycosylation site; also called H4-N55E-CDR2
# B10: H4-N55G (antibody, human IgG4 S228P, kappa, V domains shown)
# VH: B2 VH with N56G, A58T
# VL: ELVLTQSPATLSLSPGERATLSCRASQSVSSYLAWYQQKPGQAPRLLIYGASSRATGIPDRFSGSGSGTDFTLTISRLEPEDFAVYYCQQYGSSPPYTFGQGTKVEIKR
# notes: H4 variant without the CDR-H2 glycosylation site; also called H4-N55G-CDR2
# B11: H4-N55S (antibody, human IgG4 S228P, kappa, V domains shown)
# VH: B2 VH with N56S, A58T
# VL: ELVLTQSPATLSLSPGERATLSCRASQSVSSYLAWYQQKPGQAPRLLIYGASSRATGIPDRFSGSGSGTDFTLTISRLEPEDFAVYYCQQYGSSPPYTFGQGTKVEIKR
# notes: H4 variant without the CDR-H2 glycosylation site; also called H4-N55S-CDR2
# B12: L18-H5 (antibody, human IgG4 S228P, kappa, V domains shown)
# VH: B2 VH with Y52N, S53G, N54P, P55G, R57G, A58T
# VL: ELVLTQSPATLSLSPGERATLSCRASQSVSSYLAWYQQKPGQAPRLLIYGASSRATGIPDRFSGSGSGTDFTLTISRLEPEDFAVYYCQQYGSYPPLTFGQGTKVEIKR
# notes: combination of the L18 light chain and the H5 heavy chain; also called L18 (CDR3)-H5 (CDR2)
# B13: L18 (antibody, human IgG4 S228P, kappa, V domains shown)
# VH: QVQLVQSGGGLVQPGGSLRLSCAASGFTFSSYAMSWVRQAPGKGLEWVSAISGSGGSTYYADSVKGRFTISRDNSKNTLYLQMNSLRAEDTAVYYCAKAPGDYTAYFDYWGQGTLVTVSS
# VL: B12 VL
# notes: also called L18 (CDR3)
# B14: H6 (antibody, human IgG4 S228P, kappa, V domains shown)
# VH: B2 VH with N50G, Y52N, S53G, P55G, N56D, R57Y, A58T, E65K
# VL: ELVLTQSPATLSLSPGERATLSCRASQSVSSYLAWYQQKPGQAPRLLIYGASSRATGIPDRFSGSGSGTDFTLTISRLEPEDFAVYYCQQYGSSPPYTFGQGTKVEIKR
# notes: also called H6-CDR2
# B15: Par-K64E (antibody, human IgG4 S228P, kappa, V domains shown)
# VH: B2 VH with N50A, Y52S, S53G, N54S, P55G, N56G, R57S, A58T
# VL: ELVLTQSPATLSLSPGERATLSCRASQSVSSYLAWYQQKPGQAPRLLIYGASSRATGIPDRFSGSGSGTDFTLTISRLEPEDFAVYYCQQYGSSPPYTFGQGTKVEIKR
# notes: also called Parental-K64E-VH-CDR2; Par-K64E antibody
# B16: H8 (antibody, human IgG4 S228P, kappa, V domains shown)
# VH: B2 VH with N50A, Y52G, S53G, N54S, P55G, N56S, R57G, A58T, E65K
# VL: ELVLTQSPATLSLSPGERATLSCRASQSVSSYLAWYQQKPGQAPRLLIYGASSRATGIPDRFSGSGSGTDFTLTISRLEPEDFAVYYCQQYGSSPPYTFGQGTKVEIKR
# notes: also called H8-CDR2
# B17: H5 (antibody, human IgG4 S228P, kappa, V domains shown)
# VH: B2 VH with Y52N, S53G, N54P, P55G, R57G, A58T
# VL: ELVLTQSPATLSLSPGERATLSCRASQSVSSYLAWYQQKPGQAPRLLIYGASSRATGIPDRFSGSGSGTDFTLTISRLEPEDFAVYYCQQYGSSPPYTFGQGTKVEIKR
# notes: also called H5-CDR2
# B18: H4-E64K (antibody, human IgG4 S228P, kappa, V domains shown)
# VH: B2 VH with A58T, E65K
# VL: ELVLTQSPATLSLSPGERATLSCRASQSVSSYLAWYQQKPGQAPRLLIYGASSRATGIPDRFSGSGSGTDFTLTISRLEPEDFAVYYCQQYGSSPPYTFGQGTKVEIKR
# notes: also called H4-E64K-CDR2
# B19: L18-H4 (antibody, human IgG4 S228P, kappa, V domains shown)
# VH: B2 VH with A58T
# VL: B12 VL
# notes: combination of the L18 light chain and the H4 heavy chain; also called L18 (CDR3)-H4 (CDR2)
# Target: T1, hLIGHT-His (human, UniProt O43557 59-240)
# T1 construct: Named only as hLIGHT-His; also called recombinant hLIGHT; not shown: exact limits of the vendor construct
# Test: ELISA, plate coated with hHVEM, antibody 10 µg/ml present, hLIGHT-His 2.5 µg/ml, detection with anti-LIGHT
# T1 sequence (O43557 59-240 limits assumed): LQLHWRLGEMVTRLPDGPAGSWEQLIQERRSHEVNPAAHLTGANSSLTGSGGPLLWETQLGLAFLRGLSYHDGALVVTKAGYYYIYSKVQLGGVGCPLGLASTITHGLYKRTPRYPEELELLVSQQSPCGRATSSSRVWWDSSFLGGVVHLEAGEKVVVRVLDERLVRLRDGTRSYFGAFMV
row,Binder,binding result
1,B1,binds

# Target: B1
# Test: blocking ELISA: antibody titrated on plate-bound hHVEM in the presence of hBTLA, bound hBTLA detected (OD); the IC50 column has no unit, µg/ml is the unit of the x axis
row,Binder,IC50
1,B2,0.53 µg/mL

# Target: T2, His-tagged human HVEM (human, UniProt Q92956 39-202)
# T2 construct: extracellular domain; also called His-tagged HVEM (Acro Biosystems); HVEM extracellular domain peptide; not shown: His tag
# T2 sequence (looked up): B1 chain
# Test: Biacore 8K multi-cycle kinetics, purified antibody captured on Protein A, His-tagged human HVEM as analyte, 25 C
# Description: (§1) Multi-Cycle Kinetics: Multicycle kinetic analysis was performed on purified antibodies. Kinetic experiments were performed at 25° C. on a Biacore 8K. HBS-P+0.1% BSA (Cytiva, Marlborough, USA) was used as running buffer. Purified antibodies were diluted to 1.0 μg/mL in running buffer and at the start of each cycle, loaded onto Fc2, Fc3 and Fc4 of a Protein A sensor chip (Cytiva, Marlborough, USA). Antibodies were captured at a flow rate of 10 μl/min to give an immobilisation level (RL) of ˜ 100 RU. The surface was then allowed to stabilise. Multi-cycle kinetic data was obtained using His-tagged human HVEM as the analyte injected at a flow rate of 50 μl/min. A eight point, two-fold dilution range from 0.78 nM to 100 nM of antigen were prepared in running buffer. For each concentration, the association phases were monitored for 180 seconds and the dissociation phase was measured for 300 seconds. Regeneration of the sensor chip surface was conducted between cycles using two injections of 10 mM Glycine-HCl, pH 1.5.
# (§2) First a multicycle kinetics Biacore affinity assay was performed to confirm the improved binding of the H4, T57A, T57G and T57N antibodies (FIG. 3A). Each purified antibody was captured to a Protein A sensor chip before increasing concentrations of antigen (hHVEM) were injected. The fold improvement in affinity was calculated by dividing the average KD of the parent antibody by the average KD for each variant antibody. […] A single-cycle kinetic Biacore assay was also performed with the H4 N55G, H4 N55S, H4 N55D, H4 N55Q, H4 N55E, and H4 T57E antibodies (FIG. 3B).
row,Binder,Kd
1,B3,4.65 nM
2,B4,1.94 nM
3,B5,7.27 nM
4,B2,2.17 nM

# Target: T2, His-tagged human HVEM
# Test: Biacore T200 single-cycle kinetics, antibody supernatant captured on Protein A, His-tagged HVEM as analyte; reference: Parental
# Description: (§3) Single Cycle Kinetics: To assess the binding of the affinity matured IgGs, single cycle kinetic analysis was performed on supernatants using a Biacore T200 (serial no. 1909913). Kinetic experiments were performed at 25° C. running Biacore T200 Control software V2.0.1 and Evaluation software V3.0 (Cytiva, Marlborough, USA). Antibodies were diluted in HBS-P+(Cytiva, Marlborough, USA) containing 1 mg/ml BSA to a final concentration of 1.0 μg/ml. Antibodies were loaded onto Fc2, Fc3 and Fc4 of the Protein A capture Sensor chip (Cytiva, Marlborough, USA). IgGs were captured at a flow rate of 10 μl/min to give an immobilisation level (RL) of ˜50 RU. The surface was then allowed to stabilize. Single cycle kinetics data was obtained using His-tagged HVEM (Acro Biosystems, Newark, USA) as the analyte at a flow rate of 40 μl/min. A two-fold dilution range from […] to 100 nM His-tagged antigen without regeneration between each concentration was used.
# as §2
row,Binder,Fold improvement (KD parent / KD variant)
1,B6,3.93 fold
2,B7,2.59 fold
3,B8,2.4 fold
4,B9,2.73 fold
5,B10,4.29 fold
6,B11,2.67 fold

# Target: T3, HVEM on HVEM-positive melanoma cells (UniProt Q92956 39-283, limits assumed)
# T3 sequence (looked up): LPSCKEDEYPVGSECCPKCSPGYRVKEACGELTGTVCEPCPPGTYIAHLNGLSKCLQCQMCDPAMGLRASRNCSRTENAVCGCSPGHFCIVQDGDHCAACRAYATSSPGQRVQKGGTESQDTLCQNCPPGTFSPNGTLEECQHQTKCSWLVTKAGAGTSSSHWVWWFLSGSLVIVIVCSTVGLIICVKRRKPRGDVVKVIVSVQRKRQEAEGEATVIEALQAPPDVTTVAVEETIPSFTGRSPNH
# Test: cell-based or functional assay
row,Binder,"increase in specific killing events (Caspase 3/7) in melanoma cells cocultured with autologous TILs, as compared to the isotype control, after nine hours"
1,B4,9%
2,B5,19%
3,B2,19%

# Target: T2, His-tagged human HVEM
# Test: Biacore 8K multi-cycle kinetics, purified antibody captured on Protein A, His-tagged human HVEM as analyte; reference: Parental
# Description: as §1, §2
row,Binder,Fold improvement (KD parent / KD variant)
1,B3,14 fold
2,B4,33.6 fold
3,B5,8.97 fold
4,B2,30.1 fold

# Target: T2, His-tagged human HVEM
# Test: Biacore KD to HVEM extracellular domain, IgG captured on Protein A, His-tagged HVEM as analyte; reference: Parental
# Description: Affinity maturation: To improve binding affinity, the parental antibody was affinity matured using phage display. Heavy and/or light chain CDRs of variable domain regions were semi-randomized using oligonucleotide mutagenesis. Selections were performed using separate heavy and light chain phage libraries and decreasing concentrations of biotinylated His-tagged HVEM target to select the highest affinity binders from each library. Following four rounds of selections individual clones were screened as scFv supematants in a binding ELISA to identify lead candidates with signals greater than the parental scFv expressed in the same assay. Identified hits were converted into IgG and cloned into mammalian expression vectors. Plasmids encoding the affinity improved variants paired with the appropriate parental heavy or light chain, as well as the parental antibody, were transiently transfected small scale into HEK EBNA adherent cells (LGC Standards, Teddington, UK). At five days post-transfection, the supernatants were harvested, quantified by Octet (serial no. FB-30203) and analysed by Biacore single cycle kinetics.
# as §3
row,Binder,Fold improvement vs parental (KD)
1,B3,9.57 fold
2,B12,1.51 fold
3,B4,23.5 fold
4,B13,1 fold
5,B6,3.93 fold
6,B7,2.59 fold
7,B14,1.53 fold
8,B8,2.4 fold
9,B15,3.14 fold
10,B16,1.3 fold
11,B5,6.24 fold
12,B9,2.73 fold
13,B17,5.05 fold
14,B10,4.29 fold
15,B11,2.67 fold
16,B18,2.15 fold
17,B19,2.57 fold
18,B2,20.7 fold

# Target: T2, His-tagged human HVEM
# Test: Biacore T200 single-cycle kinetics, antibody supernatant captured on Protein A, His-tagged HVEM as analyte, 25 C
# Description: as §3, §2
row,Binder,Kd
1,B6,14.3 nM
2,B7,21.7 nM
3,B8,23.4 nM
4,B9,20.6 nM
5,B10,13.1 nM
6,B11,21 nM

# Source: patent US20240067742A1 (4C BIOMED, published 2024)
